Assay results taken from patent US20220056119A1 (Regeneron, published 2022).
Blank lines part the entries; values can stand above or below the binder they belong to.

Columns and labels:
[1] = biological target: T1, Activin A (human, UniProt P08476 311-426); assay: cell-based or functional assay
T1 sequence: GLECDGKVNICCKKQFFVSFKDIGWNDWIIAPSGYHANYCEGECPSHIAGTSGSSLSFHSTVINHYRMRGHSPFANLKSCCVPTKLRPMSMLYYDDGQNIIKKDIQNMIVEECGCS

[2] = biological target: T2, Activin AC (human, UniProt P55103 237-352); assay: cell-based or functional assay
T2 sequence 1: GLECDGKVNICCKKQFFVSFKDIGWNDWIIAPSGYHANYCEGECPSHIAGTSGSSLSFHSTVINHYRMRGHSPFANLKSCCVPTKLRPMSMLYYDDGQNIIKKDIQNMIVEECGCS
T2 sequence 2: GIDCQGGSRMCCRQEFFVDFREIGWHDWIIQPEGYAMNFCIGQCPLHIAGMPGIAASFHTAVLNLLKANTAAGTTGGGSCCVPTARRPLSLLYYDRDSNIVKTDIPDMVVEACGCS

[3] = biological target: T3, Activin AB (human, UniProt P08476 311-426; P09529 293-407); assay: cell-based or functional assay
T3 chain 1: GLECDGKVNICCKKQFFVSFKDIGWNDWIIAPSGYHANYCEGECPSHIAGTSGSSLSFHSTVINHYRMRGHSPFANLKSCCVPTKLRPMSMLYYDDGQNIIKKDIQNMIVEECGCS
T3 chain 2: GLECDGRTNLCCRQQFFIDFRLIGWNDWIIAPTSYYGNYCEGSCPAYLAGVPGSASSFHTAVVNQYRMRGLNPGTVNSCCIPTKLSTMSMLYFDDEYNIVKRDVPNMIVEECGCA

[4] = biological target: T1, Activin A; assay: SPR, 5 nM Activin A + 7.50 nM binder over hActRIIA-hFc surface
Description: (§1) The binding signal (RU) was measured at 150 seconds after the start of the injection, and this signal was subtracted by the measured RU value for a negative control reference surface to determine the specific binding signal.

[5] = biological target: T1, Activin A; assay: SPR, 5 nM Activin A + 30 nM binder over Follistatin-288 surface
Description: as §1

[6] = biological target: T1, Activin A; assay: SPR, 5 nM Activin A + 1.88 nM binder over Follistatin-288 surface
Description: as §1

[7] = biological target: T1, Activin A; assay: SPR, 5 nM Activin A + 7.5 nM binder over Follistatin-288 surface
Description: as §1

[8] = biological target: T1, Activin A; assay: SPR, 5 nM Activin A + 3.75 nM binder over Follistatin-288 surface
Description: as §1

[9] = biological target: T1, Activin A; assay: SPR, 5 nM Activin A + 0.94 nM binder over Follistatin-288 surface
Description: as §1

[10] = biological target: T1, Activin A; assay: SPR, 5 nM Activin A + 1.88 nM binder over hActRIIA-hFc surface
Description: as §1

[11] = biological target: T1, Activin A; assay: SPR, 5 nM Activin A + 3.75 nM binder over hActRIIA-hFc surface
Description: as §1

[12] = biological target: T1, Activin A; assay: SPR, 5 nM Activin A + 15 nM binder over hActRIIA-hFc surface
Description: as §1

[13] = biological target: T1, Activin A; assay: SPR, 5 nM Activin A + 60 nM binder over Follistatin-288 surface
Description: as §1

[14] = biological target: T1, Activin A; assay: SPR, 5 nM Activin A + 30 nM binder over hActRIIA-hFc surface
Description: as §1

[15] = biological target: T1, Activin A; assay: SPR, 5 nM Activin A + 0 nM binder (no inhibitor) over Follistatin-288 surface
Description: as §1

[16] = biological target: T1, Activin A; assay: SPR, 5 nM Activin A + 0.00 nM binder (no inhibitor) over hActRIIA-hFc surface
Description: as §1

[17] = biological target: T1, Activin A; assay: SPR, 5 nM Activin A + 0.94 nM binder over hActRIIA-hFc surface
Description: as §1

[18] = biological target: T1, Activin A; assay: SPR, 5 nM Activin A + 15 nM binder over Follistatin-288 surface
Description: as §1

[19] = biological target: T1, Activin A; assay: SPR, 5 nM Activin A + 60 nM binder over hActRIIA-hFc surface
Description: as §1

B1: H4H10424P (antibody, human IgG4, V domains shown)
VH: QVQLVESGGGVVQPGRSLRLSCAASGFTFSSYGMHWVRQAPGKGLEWVAVIWYDGSNKYNADSVKGRFTISRDNSKNTVYLQMNSLRAEDTAVYYCARARNYDILTGYYNLGMDVWGQGTTVTVSS
VL: DIQMTQSPSSLSASVGDRVTITCRASQGIRNDLGWYQQKPGKAPKRLIYAASSLQSGVPSRFSGSGSGTEFTLTISSLQPEDFATYYCLQHNSYPYTFGQGTKLEIK
IC50, inhibition of 100 pM Activin A in A204/CAGAx12-Luc luciferase bioassay [1]: 7.6e-10 M

B2: H2aM10965N (antibody, mouse IgG2a, V domains shown)
VH: RVQLVQSGSEVKKPGASVKVSCRASGYIFTSYDINWVRQATGQGLEWMGWMNPNNGNTAYTQKFQGRVTMTRNTSISTAYMELSSLRSEDTAVYYCARKGLLWFGKLLGYGMDVWGQGTTVTVSS
VL: not shown
IC50, inhibition of 100 pM Activin A in A204/CAGAx12-Luc luciferase bioassay [1]: 3.5e-09 M

B3: H4H10438P2 (antibody, human IgG4, V domains shown)
VH: EVQLVESGGGLVQPGRSLRLSCAASGFTFDDNAMHWVRQPPGKGLEWVSGISWNSGSIGYADSVKGRFTISRDNAKNSLYLQMNSLRAEDTALYYCAKDINDILTGYPLFDYWGQGTLVTVSS
VL: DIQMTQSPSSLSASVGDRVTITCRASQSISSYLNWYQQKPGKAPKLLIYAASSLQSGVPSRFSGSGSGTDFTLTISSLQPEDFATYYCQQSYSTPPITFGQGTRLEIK
IC50, inhibition of 100 pM Activin A in A204/CAGAx12-Luc luciferase bioassay [1]: 2.6e-10 M

B4: H4H10468P2 (antibody, human IgG4, V domains shown)
VH: QVQLQESGPGLVKPSETLSLTCTVSGGSFSSHFWSWIRQPPGKGLEWIGYIYYSGGTHYNPSLESRVTISVDTSKNQFSLKLNSVTAADTAVYYCARARSGITFGGLIVPGSFDIWGQGTMVTVSS
VL: not shown
IC50, inhibition of 100 pM Activin A in A204/CAGAx12-Luc luciferase bioassay [1]: 3.9e-11 M
IC50, inhibition of 4 nM Activin AC in A204/CAGAx12-Luc luciferase bioassay [2]: 3.4 nM
IC50, inhibition of 30 pM Activin AB in A204/CAGAx12-Luc luciferase bioassay [3]: 2.3e-09 M

Next, values leading:

IC50, inhibition of 100 pM Activin A in A204/CAGAx12-Luc luciferase bioassay [1]: 4.6e-11 M
B5: H4H10448P2 (antibody, human IgG4, V domains shown)
VH: QVQLQESGPGLVKPSETLSLTCTVSGGTFSSHFWSWIRQPPGKGLEWIGYIFYTGGTNHNPSLKSRVTISIDTSKNQFSLKLTSVTAADTAVYYCARARSGITFGGVIVPGSFDIWGQGTMVTVSS
VL: not shown

IC50, inhibition of 100 pM Activin A in A204/CAGAx12-Luc luciferase bioassay [1]: 7.8e-11 M
B6: H4H10447P2 (antibody, human IgG4, V domains shown)
VH: QVQLQESGPGLVKPSETLSLTCSVSGGSFSSHFWSWIRQPPGKGLEWIGYIHYSGGTNYNPSLKSRVTISVDTSKNQFSLKLTSVTAADTADYYCARAISGITFGGMIVPGSFDVWGEGTMVTVSS
VL: not shown

% bound RU w/ no inhibitor [4]: 105%
% bound RU w/ no inhibitor [5]: 3%
% bound RU w/ no inhibitor [6]: 46%
% bound RU w/ no inhibitor [7]: 3%
% bound RU w/ no inhibitor [8]: 6%
% bound RU w/ no inhibitor [9]: 73%
% bound RU w/ no inhibitor [10]: 114%
% bound RU w/ no inhibitor [11]: 95%
% bound RU w/ no inhibitor [12]: 113%
% bound RU w/ no inhibitor [13]: 3%
% bound RU w/ no inhibitor [14]: 117%
% bound RU w/ no inhibitor [15]: 100%
% bound RU w/ no inhibitor [16]: 100%
IC50, inhibition of 100 pM Activin A in A204/CAGAx12-Luc luciferase bioassay [1]: 5.6e-11 M
IC50, inhibition of 4 nM Activin AC in A204/CAGAx12-Luc luciferase bioassay [2]: 6.5 nM
IC50, inhibition of 30 pM Activin AB in A204/CAGAx12-Luc luciferase bioassay [3]: 2.2e-09 M
% bound RU w/ no inhibitor [17]: 114%
% bound RU w/ no inhibitor [18]: 3%
% bound RU w/ no inhibitor [19]: 118%
B7: H4H10442P2 (antibody, human IgG4, V domains shown)
VH: QVQLQESGPGLVKPSETLSITCTVSGGSFSSHFWTWIRQPPGKGLEWIGYLHYSGGTSYNPSLKSRVIISVDTSKNQFSLKLNSVTAADTAVYYCARARSGITFGGLIVPGSFDIWGQGTMVTVSS
VL: not shown
